Measured values published in the Immune Epitope Database (IEDB).

Legend:
HLA-A*03:01 [1] = assay: IEDB peptide-MHC binding, purified MHC/competitive/fluorescence; ≥ and ≤ were set here for values at or beyond the usual limits of such assays
HLA-A*11:01 [2] = assay: as above
HLA-A*02:01 [3] = assay: IEDB peptide-MHC binding, purified MHC/competitive/radioactivity; filed as Kd, often an IC50 or EC50 that approximates it; ≥ and ≤ were set here for values at or beyond the usual limits of such assays
HLA-A*68:02 = assay: as above
HLA-A*02:02 = assay: as above
HLA-B*48:01 = assay: IEDB peptide-MHC binding, purified MHC/direct/fluorescence; filed as Kd, often an IC50 or EC50 that approximates it; ≥ and ≤ were set here for values at or beyond the usual limits of such assays; settings: source organism: Burkholderia mallei ATCC 23344
HLA-B*51:01 [4] = assay: IEDB peptide-MHC binding, purified MHC/competitive/fluorescence; filed as Kd, often an IC50 or EC50 that approximates it; ≥ and ≤ were set here for values at or beyond the usual limits of such assays; settings: source organism: Helicobacter pylori 26695
HLA-A*26:01 = assay: as above
HLA-A*02:01 [5] = assay: as above
HLA-A*03:01 [6] = assay: as above
HLA-B*57:01 = assay: as above
HLA-B*46:01 = assay: as above
HLA-B*27:03 = assay: as above
HLA-B*18:01 = assay: as above
HLA-B*15:01 = assay: as above
HLA-B*39:01 = assay: as above
HLA-A*68:01 = assay: IEDB peptide-MHC binding, purified MHC/competitive/radioactivity; filed as Kd, often an IC50 or EC50 that approximates it; ≥ and ≤ were set here for values at or beyond the usual limits of such assays
HLA-A*31:01 = assay: as above
HLA-A*03:01 [7] = assay: as above
HLA-A*11:01 [8] = assay: as above
HLA-B*44:03 = assay: as above; settings: source organism: Hepatitis C virus (isolate 1)
HLA-A*33:01 = assay: as above
HLA-A*01:01 [9] = assay: as above; settings: source organism: Hepatitis C virus (isolate 1)
HLA-B*40:02 = assay: as above; settings: source organism: Hepatitis C virus (isolate 1)
HLA-B*08:01 = assay: as above; settings: source organism: Hepatitis C virus (isolate 1)
HLA-A*02:03 = assay: as above
HLA-B*53:01 = assay: as above
HLA-A*02:06 = assay: as above
HLA-B*40:01 = assay: as above; settings: source organism: Hepatitis C virus (isolate 1)
HLA-B*54:01 = assay: as above
HLA-B*44:02 = assay: as above; settings: source organism: Hepatitis C virus (isolate 1)
HLA-A*02:01 [10] = assay: IEDB peptide-MHC binding, purified MHC/competitive/fluorescence; ≥ and ≤ were set here for values at or beyond the usual limits of such assays
HLA-A*24:02 = assay: as above; settings: source organism: Zaire ebolavirus
HLA-A*01:01 [11] = assay: IEDB peptide-MHC binding, purified MHC/competitive/fluorescence; filed as Kd, often an IC50 or EC50 that approximates it; ≥ and ≤ were set here for values at or beyond the usual limits of such assays; settings: source organism: Influenza A virus (A/equine/California/8560/2002(H3N8))
HLA-B*51:01 [12] = assay: IEDB peptide-MHC binding, purified MHC/competitive/radioactivity; filed as Kd, often an IC50 or EC50 that approximates it; ≥ and ≤ were set here for values at or beyond the usual limits of such assays; settings: source organism: Vaccinia virus WR
HLA-A*30:01 = assay: as above; settings: source organism: Vaccinia virus WR
HLA-B*07:02 = assay: as above; settings: source organism: Vaccinia virus WR
HLA-B*35:01 = assay: as above; settings: source organism: Vaccinia virus WR
[13] = source organism: Vaccinia virus Copenhagen
[14] = source organism: Lassa virus Josiah
[15] = source organism: Helicobacter pylori 26695
[16] = source organism: Hepatitis C virus (isolate 1)
[17] = source organism: Zaire ebolavirus
[18] = source organism: Vaccinia virus
[19] = source organism: Sudan ebolavirus
[20] = source organism: Triticum aestivum
[21] = source organism: Vaccinia virus WR
[22] = source organism: HIV-1 M:B_ARV2/SF2
[23] = source organism: Camelpox virus CMS

ANCSSISIK
IC50 (HLA-A*03:01 [1]; [13]): 42.4 µM | IC50 (HLA-A*11:01 [2]; [13]): 2.78 µM

DLNGAQIKL
Kd (HLA-A*02:01 [3]; source organism: Homo sapiens): ≥ 50.6 µM | Kd (HLA-A*68:02; source organism: Homo sapiens): 2.98 µM | Kd (HLA-A*02:02; source organism: Homo sapiens): 2.62 µM

DLNLGNLN
Kd (HLA-A*02:01 [3]; source organism: Hepatitis B virus subtype ayw): ≥ 5 µM

EQGKQHAWL
Kd (HLA-B*48:01): ≥ 20 µM

FLLLCGRSCT
Kd (HLA-A*02:01 [3]; [14]): ≥ 25 µM

GIVCYNEEV
Kd (HLA-B*51:01 [4]): ≥ 20 µM | Kd (HLA-A*26:01; [15]): ≥ 20 µM | Kd (HLA-A*02:01 [5]; [15]): 0.038 µM | Kd (HLA-A*03:01 [6]; [15]): ≥ 20 µM | Kd (HLA-B*57:01; [15]): ≥ 20 µM | Kd (HLA-B*46:01; [15]): ≥ 20 µM | Kd (HLA-B*27:03; [15]): ≥ 20 µM | Kd (HLA-B*18:01; [15]): ≥ 20 µM | Kd (HLA-B*15:01; [15]): ≥ 20 µM | Kd (HLA-B*39:01; [15]): ≥ 20 µM

HIPGDTLFK
IC50 (HLA-A*03:01 [1]; source organism: Variola virus): 6.64 µM | IC50 (HLA-A*11:01 [2]; source organism: Variola virus): 0.735 µM

HPNIEEVAL
Kd (HLA-A*68:01; [16]): ≥ 57.9 µM | Kd (HLA-A*02:01 [3]; [16]): ≥ 70.5 µM | Kd (HLA-A*31:01; [16]): ≥ 77.9 µM | Kd (HLA-A*03:01 [7]; [16]): ≥ 78 µM | Kd (HLA-A*11:01 [8]; [16]): ≥ 77.9 µM | Kd (HLA-B*44:03): ≥ 48.2 µM | Kd (HLA-A*68:02; [16]): ≥ 69.8 µM | Kd (HLA-A*33:01; [16]): ≥ 77.7 µM | Kd (HLA-A*01:01 [9]): 16 µM | Kd (HLA-B*40:02): ≥ 77.3 µM | Kd (HLA-B*08:01): ≥ 36 µM | Kd (HLA-A*02:03; [16]): 17.2 µM | Kd (HLA-B*53:01; [16]): 0.163 µM | Kd (HLA-A*02:02; [16]): 4 µM | Kd (HLA-A*02:06; [16]): ≥ 67.3 µM | Kd (HLA-B*40:01): ≥ 76.2 µM | Kd (HLA-B*54:01; [16]): 4.57 µM | Kd (HLA-B*44:02): ≥ 78 µM

KILMNFHQK
IC50 (HLA-A*02:01 [10]; [17]): ≥ 95.4 µM | IC50 (HLA-A*03:01 [1]; [17]): 3.35 µM | IC50 (HLA-A*11:01 [2]; [17]): 0.441 µM | IC50 (HLA-A*24:02): 50.3 µM

LEYKTLCDM
IC50 (HLA-A*03:01 [1]; [18]): ≥ 289 µM | IC50 (HLA-A*11:01 [2]; [18]): 44.8 µM

LGLRKRSRR
IC50 (HLA-A*03:01 [1]; [19]): 6.72 µM | IC50 (HLA-A*11:01 [2]; [19]): 65.8 µM

LLSQRTRDI
Kd (HLA-A*02:01 [3]; [14]): 12.5 µM

LQQSTYQLV
Kd (HLA-A*02:01 [3]; [20]): 0.0913 µM | Kd (HLA-A*68:02; [20]): ≥ 56.5 µM | Kd (HLA-A*02:03; [20]): 0.0188 µM | Kd (HLA-A*02:02; [20]): 0.436 µM | Kd (HLA-A*02:06; [20]): 0.0275 µM

LRTFSILNR
IC50 (HLA-A*02:01 [10]; [17]): ≥ 248 µM | IC50 (HLA-A*03:01 [1]; [17]): ≥ 111 µM | IC50 (HLA-A*11:01 [2]; [17]): 33.1 µM

LSVETITEK
IC50 (HLA-A*02:01 [10]; [13]): ≥ 134 µM | IC50 (HLA-A*03:01 [1]; [13]): ≥ 101 µM | IC50 (HLA-A*11:01 [2]; [13]): 6.6 µM | Kd (HLA-A*68:01; [21]): 0.261 µM | Kd (HLA-A*31:01; [21]): 2.92 µM | Kd (HLA-A*33:01; [21]): 1.52 µM

MTIASVPTSRY
Kd (HLA-A*01:01 [11]): 2.04 µM

MTIREFPRK
Kd (HLA-A*68:01; [21]): 0.00619 µM | Kd (HLA-B*51:01 [12]): ≥ 77.5 µM | Kd (HLA-A*02:01 [3]; [21]): ≥ 78.1 µM | Kd (HLA-A*31:01; [21]): 0.0998 µM | Kd (HLA-A*30:01): 0.00159 µM | Kd (HLA-A*03:01 [7]; [21]): 0.00627 µM | Kd (HLA-A*11:01 [8]; [21]): 0.00392 µM | Kd (HLA-A*68:02; [21]): 3.32 µM | Kd (HLA-A*33:01; [21]): 1.38 µM | Kd (HLA-B*07:02): ≥ 77.5 µM | Kd (HLA-A*02:03; [21]): ≥ 78.1 µM | Kd (HLA-B*53:01; [21]): ≥ 78.2 µM | Kd (HLA-A*02:02; [21]): ≥ 77.8 µM | Kd (HLA-A*02:06; [21]): ≥ 65.6 µM | Kd (HLA-B*54:01; [21]): ≥ 78.1 µM | Kd (HLA-B*35:01): ≥ 77.4 µM

NRSTKGGQQ
IC50 (HLA-A*03:01 [1]; [17]): ≥ 286 µM | IC50 (HLA-A*11:01 [2]; [17]): ≥ 140 µM

QIIHDFVDK
IC50 (HLA-A*02:01 [10]; [17]): ≥ 262 µM | IC50 (HLA-A*03:01 [1]; [17]): ≥ 97.5 µM | IC50 (HLA-A*11:01 [2]; [17]): 6.34 µM

SIFLHLVKI
Kd (HLA-A*02:01 [3]; [14]): 0.385 µM

TNAMVTLRK
IC50 (HLA-A*02:01 [10]; [17]): ≥ 1090 µM | IC50 (HLA-A*03:01 [1]; [17]): 6.42 µM | IC50 (HLA-A*11:01 [2]; [17]): 0.311 µM | IC50 (HLA-A*24:02): ≥ 188 µM

VIYQYMDDL
Kd (HLA-A*02:01 [3]; [22]): 5.84 µM | Kd (HLA-A*68:02; [22]): ≥ 56.2 µM | Kd (HLA-A*02:03; [22]): 4.74 µM | Kd (HLA-A*02:02; [22]): 0.156 µM | Kd (HLA-A*02:06; [22]): 7.68 µM

VLYYHMMKD
IC50 (HLA-A*02:01 [10]; [17]): 48.1 µM | IC50 (HLA-A*03:01 [1]; [17]): 26 µM | IC50 (HLA-A*11:01 [2]; [17]): 12.6 µM

WVIDTLNGI
Kd (HLA-A*26:01; [23]): ≥ 20 µM | Kd (HLA-A*02:01 [5]; [23]): 0.0074 µM | Kd (HLA-A*03:01 [6]; [23]): ≥ 20 µM | Kd (HLA-B*57:01; [23]): ≥ 20 µM | Kd (HLA-B*46:01; [23]): ≥ 20 µM | Kd (HLA-B*27:03; [23]): ≥ 20 µM | Kd (HLA-B*18:01; [23]): ≥ 20 µM | Kd (HLA-B*15:01; [23]): ≥ 20 µM | Kd (HLA-B*39:01; [23]): ≥ 20 µM
